Results published in article PMC10616141.
Substitutions are numbered along the chain they refer to. One block for each binder: values may come before it.

Target: Orai1-CFP, Q96D31
Test: E-FRET in cells (Orai1-CFP / STIM1-YFP)
Conditions: chain shown with the change, HEK-S1S2dKO-O1CFP cells, store-depletion with 2.5 µM ionomycin, parent: est. 0.11, read off a plot

Chain of Orai1-CFP, Q96D31 (Q96D31 whole entry): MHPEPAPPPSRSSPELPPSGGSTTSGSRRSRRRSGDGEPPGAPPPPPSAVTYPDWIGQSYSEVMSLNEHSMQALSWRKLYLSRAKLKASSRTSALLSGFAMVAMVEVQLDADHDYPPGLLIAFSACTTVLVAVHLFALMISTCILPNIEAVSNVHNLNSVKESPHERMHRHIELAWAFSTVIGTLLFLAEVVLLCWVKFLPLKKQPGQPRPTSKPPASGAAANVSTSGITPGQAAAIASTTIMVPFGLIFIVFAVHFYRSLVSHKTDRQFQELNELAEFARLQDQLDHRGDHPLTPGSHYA

response (n = 106 (WT n = 579)): 0.003
B1: STIM1-YFP-WT, Q13586 F394del (protein)
chain: LSHSHSEKATGTSSGANSEESTAAEFCRIDKPLCHSEDEKLSFEAVRNIHKLMDDDANGDVDVEESDEFLREDLNYHDPTVKHSTFHGEDKLISVEDLWKAWKSSEVYNWTVDEVVQWLITYVELPQYEETFRKLQLSGHAMPRLAVTNTTMTGTVLKMTDRSHRQKLQLKALDTVLFGPPLLTRHNHLKDFMLVVSIVIGVGGCWFAYIQNRYSKEHMKKMMKDLEGLHRAEQSLHDLQERLHKAQEEHRTVEVEKVHLEKKLRDEINLAKQEAQRLKELREGTENERSRQKYAEEELEQVREALRKAEKELESHSSWYAPEALQKWLQLTHEVEVQYYNIKKQNAEKQLLVAKEGAEKIKKKRNTLFGTHVAHSSSLDDVDHKILTAKQALSEVTAALRERLHRWQQIEILCGFQIVNNPGIHSLVAALNIDPSWMGSTRPNPAHFIMTDDVDDMDEEIVSPLSMQSPSLQSSVRQRLTEPQHGLGSQRDLTHSDSESSLHMSDRQRVAPKPPQMSRAADEALNAMTSNGSHRLIEGVHPGSLVEKLPDSPALAKKALLALNHGLDKAHSLMELSPSAPPGGSPHLDSSRSHSPSSPDPDTPSPVGDSRALQASRNTRIPHLAGKKAVAEEDNGSIGEETDSSPGRKKFPLKIFKKPLKK

response (n = 207 (WT n = 579)): 0.082
B2: STIM1-YFP-WT, Q13586 H395del (protein)
chain: B1 chain with H372F

response (n = 100 (WT n = 579)): 0.07
B3: STIM1-YFP-WT, Q13586 H398del (protein)
chain: B1 chain with H372F, V373H, A374V, H375A

response (n = 87 (WT n = 579)): 0.074
B4: STIM1-YFP-WT, Q13586 H395del; V396del (protein)
chain: LSHSHSEKATGTSSGANSEESTAAEFCRIDKPLCHSEDEKLSFEAVRNIHKLMDDDANGDVDVEESDEFLREDLNYHDPTVKHSTFHGEDKLISVEDLWKAWKSSEVYNWTVDEVVQWLITYVELPQYEETFRKLQLSGHAMPRLAVTNTTMTGTVLKMTDRSHRQKLQLKALDTVLFGPPLLTRHNHLKDFMLVVSIVIGVGGCWFAYIQNRYSKEHMKKMMKDLEGLHRAEQSLHDLQERLHKAQEEHRTVEVEKVHLEKKLRDEINLAKQEAQRLKELREGTENERSRQKYAEEELEQVREALRKAEKELESHSSWYAPEALQKWLQLTHEVEVQYYNIKKQNAEKQLLVAKEGAEKIKKKRNTLFGTFAHSSSLDDVDHKILTAKQALSEVTAALRERLHRWQQIEILCGFQIVNNPGIHSLVAALNIDPSWMGSTRPNPAHFIMTDDVDDMDEEIVSPLSMQSPSLQSSVRQRLTEPQHGLGSQRDLTHSDSESSLHMSDRQRVAPKPPQMSRAADEALNAMTSNGSHRLIEGVHPGSLVEKLPDSPALAKKALLALNHGLDKAHSLMELSPSAPPGGSPHLDSSRSHSPSSPDPDTPSPVGDSRALQASRNTRIPHLAGKKAVAEEDNGSIGEETDSSPGRKKFPLKIFKKPLKK

response (n = 107 (WT n = 579)): 0.034
B5: STIM1-YFP-WT, Q13586 V396del; A397del (protein)
chain: B4 chain with A373H
